Each block holds one molecule with its values, some of them ahead of it.
Assays:
[1] = biological target: T1, CabRC core (PscA homodimer) in the CabRC complex (Chloracidobacterium thermophilum, UniProt G2LDR8); test: cryo-EM structure ([…] Å CabRCS; […] Å CabRCL); HPLC of pigments; type: binding; settings: one transmembrane molecule in each PscA
T1 construct: gene Cabther_A2188; native complex from C. thermophilum membranes, Triton X-100, untagged; PscA homodimer with 11 TMHs each, insertion N440-H644; smaller form CabRCS without and larger form CabRCL with PscB and PscZ; with c-type cytochrome PscX; c-type cytochrome PscY; Reaction center subunit PscU; Reaction center subunit PscV; Reaction center subunit PscW

[2] = biological target: PscA (Chloracidobacterium thermophilum); test: cryo-EM structure; CabRCS (smaller form, ten subunits), native complex purified from C. thermophilum membranes in Triton X-100; 2.22 Å; 20 mM Tris-HCl pH 7.6, 10 mM ascorbic acid, 0.03% Triton X-100
PscB = biological target: T2, PscB (Chloracidobacterium thermophilum, UniProt G2LDR7 1-179); test: cryo-EM structure; CabRCL (larger form with PscB and PscZ), native complex purified from C. thermophilum membranes in Triton X-100; 2.61 Å global, cytoplasmic region ~3.5 to ~5.0 Å; 20 mM Tris-HCl pH 7.6, 10 mM ascorbic acid, 0.03% Triton X-100; settings: both partners purified
T2 construct: Only in the larger form CabRCL; also called PscB/CabRC
T2 sequence (looked up): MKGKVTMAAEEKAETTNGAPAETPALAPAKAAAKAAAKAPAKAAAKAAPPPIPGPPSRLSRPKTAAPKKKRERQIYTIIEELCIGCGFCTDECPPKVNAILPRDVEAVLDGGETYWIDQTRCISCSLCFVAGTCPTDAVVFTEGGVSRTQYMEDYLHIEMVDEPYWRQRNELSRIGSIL

Molecule: CC(C)=CCC/C(C)=C/C=C/C(C)=C/C=C/C(C)=C/C=C/C=C(C)/C=C/C=C(C)/C=C/C=C(\C)CCC=C(C)C [lycopene]
- cryo-EM structure (2.22 Å CabRCS; 2.61 Å CabRCL); HPLC of pigments [1]: we identified one transmembrane lycopene molecule in each PscA

- stoichiometry N [2]: 2
Molecule: PscA (natural protein)

- binding result (PscB): binds
B1: PscZ (natural protein, Chloracidobacterium thermophilum, UniProt G2LHG2 1-60, looked up)
chain: MARTPEEIVKRYKEANIWLRHWKQQIGLAKDEEQREMFTQYYEERVQEIAALEEPYRAAL
notes: Only in the larger form CabRCL
